PMC7857026, “NbWRKY40 Positively Regulates the Response of Nicotiana benthamiana to Tomato Mosaic Virus via Salicylic Acid Signaling”

Target: NbWRKY40 (GST fusion implied by GST control) (Nicotiana benthamiana, UniProt A0A7T1TE48 1-255)
Test: EMSA; LightShift Chemiluminescent EMSA Kit (Thermo Scientific), manufacturer's instructions; buffer, salt, pH and temperature not stated
Settings: protein: recombinant; label: biotin (end label); blunt

Chain of NbWRKY40 (GST fusion implied by GST control) (A0A7T1TE48 entry or part of it): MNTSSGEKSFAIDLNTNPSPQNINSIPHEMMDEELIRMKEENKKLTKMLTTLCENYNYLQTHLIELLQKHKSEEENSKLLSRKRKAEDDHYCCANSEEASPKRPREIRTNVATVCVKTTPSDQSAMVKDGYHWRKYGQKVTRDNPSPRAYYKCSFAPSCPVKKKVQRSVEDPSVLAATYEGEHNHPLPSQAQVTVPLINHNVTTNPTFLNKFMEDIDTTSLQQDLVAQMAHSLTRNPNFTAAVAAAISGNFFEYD

B1: NbICS1 promoter W-box fragment (84 bp) (dsDNA)
DNA 1: TAGTACAGAATATGAAGAAAGCTTTGCATATGGTGTTTATTGACCTAGAGAAAGTGTACATCAAGGTCCCTAGGGATGTCCTTT
DNA 2: AAAGGACATCCCTAGGGACCTTGATGTACACTTTCTCTAGGTCAATAAACACCATATGCAAAGCTTTCTTCATATTCTGTACTA
binding result: binds
